Test system: MS2 coat protein
Experiment: apparent KD of MS2 coat protein; designed switch direction (-1 OFF switch, 1 ON switch): -1; higher = weaker reporter binding
Summary of the method: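 SNAP-549-labelled MS2 coat protein was titrated, doubling from 0.7 or 1.5 nM to 3 µM, over designed RNA switches transcribed on Illumina chips by stalled E. coli RNA polymerase. Runs were done without input, with 200 uM small-molecule ligand, or with an oligonucleotide input. Apparent KD is the per-design median over clusters of curve-fitted normalised fluorescence.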

[1] = input ligand: microRNA oligo, concentration not stated
[2] = Eterna round: R95, input ligand: FMN 200 uM
[3] = Eterna round: R95, input ligand: microRNA oligo, concentration not stated
[4] = Eterna round: R95, input ligand: none

Sequence | apparent KD of MS2 coat protein (input ligand: FMN 200 uM) [nM] | apparent KD of MS2 coat protein [1] [nM] | apparent KD of MS2 coat protein (input ligand: none) [nM] | apparent KD of MS2 coat protein [2] [nM] | apparent KD of MS2 coat protein [3] [nM] | apparent KD of MS2 coat protein [4] [nM]
AAGUACCGGUGAGGAUAUUUUUAAUAGAGCUUUAUGAUAUACAUGAGGAUCACCCAUGUUACGUUAAAGAAGGCAUCGGAUUAA [Mat - Exclusion NG 2 - Mod of JL - D97] (Eterna round: R96, puzzle: Exclusion NG 2) | 16.1 | 13.7 | 19.3 | – | – | –
GAUUAUGCGAGCUUUAGGGACAUGAGGAUCACCCAUGUUCGUCUUAUUGGUCUAAGUGCACUAACAUACCUAAAUCU [JMF 30] (puzzle: Sensor v3, turn-off variant 1) | – | – | – | 21.2 | 38.5 | 20
UUUUAACAUGAGGAUCACCCAUGUGAGGAUAUCGAAAUUUAUAUUUAUAUUUAUAAUACGAGAAGGCACAUUUU [JMF 94] (puzzle: Exclusion 1) | – | – | – | – | 82.3 | –
AAGAAUUAGUCAGGAUAUAGCGGCCAAGAACUACUAGAAGGGAUUAGACAUGAGGAUCACCCAUGUGAUCUUUUUGUAGGGACG [Eternabot solution 15] (Eterna round: R96, puzzle: Exclusion NG 1) | 32.6 | 25.7 | 41.2 | – | – | –
UUGUUCCGUGUAGGAUAUUGGUCUCCCUCGGGCCGAGAAGGACAUGAGGAUCACCCAUGUAUGUUAUUAUCGCGCGUGGCGCAU [Design 91] (Eterna round: R96, puzzle: Exclusion NG 1) | 112 | 21.6 | 37.9 | – | – | –
ACAAGCUUUUUGUUCGUCUUAUACACUCCUAAUAGGACAACAUGAGGAUCACCCAUGUAACAAAGACGAACUCAUGU [Sesor Array 9 - Jieux - Sensor v3, turn-off variant 2] (puzzle: Sensor v3, turn-off variant 2) | – | – | – | 11.6 | 169 | 9.63
UUUUAGUCAGGAUAUACAUGAGGAUCACCCAUGUAAAAUUUUAAUUUAAUUUGAAGGUGUAGAAGGGACAUUUU [Ex3 #40] (Eterna round: R97, puzzle: Exclusion 3) | 25.9 | – | 27.8 | – | – | –
GGAAUGUAAGGAUAUGCGAAAAGAAGCCGAAGGGAGUCGAAGCAGAAGGUACAUGAGGAUCACCCAUGUAAGGG [AK-MS2ROC-r4-exclusion4-12.1] (Eterna round: R97, puzzle: Exclusion 4) | 159 | – | 700 | – | – | –
AGUACUAACACGAAAGUGUUAGUAAAAUAAGCUUGUGGUACAUGAGGAUCACCCAUGUCCUCAUAAGCUCGUCUUAU [Mat - Sensor v3 - Turn-off var 2 - D42] (puzzle: Sensor v3, turn-off variant 2) | – | – | – | 21.6 | 78.8 | 20.6
GGAUAGUGAGGAUAUCGAUGUUAGGAGGAGUAGAUAGGAGGCGAGAAGGCACAUGAGGAUCACCCAUGUAUGGA [JR_Exclu4_Sub068] (puzzle: Exclusion 4) | – | – | – | – | 47.8 | –
CGUGGACAUAACAAGCUUUACAUGAGGAUCACCCAUGUGAUCAUGCUCGUCUUAUGGUCCACGAAUUAAUUAAUUAG [Stov1/6-C2] (Eterna round: R97, puzzle: Sensor, turn-off variant 1) | 19.2 | – | 18.3 | – | – | –
AAUAAUCAUGUAGGAUAUGCGUGGCAAAGCUAUGCAGAAGGACAUGAGGAUCACCCAUGUUCUAGCGUCUGAAAACAGAUGCUA [Mat - Exclusion NG 1 - Mod of JL - D83] (Eterna round: R96, puzzle: Exclusion NG 1) | 451 | 29.5 | 44.3 | – | – | –
AUAAUGUAAGGAUAUCAGUCGACUAGCCUCGGCUAGUCGACUGAGAAGGUACAUGAGGAUCACCCAUGUGAUUA [E4/10-A2] (Eterna round: R97, puzzle: Exclusion 4) | 762 | – | 191 | – | – | –
AUUUUGUCAGGAUAUUGUUAGUUUAGUUGUUUGUAUUAGUUCGAGAAGGGACAUGAGGAUCACCCAUGUGAUAA [Ex4 #72] (Eterna round: R97, puzzle: Exclusion 4) | 71.9 | – | 62.6 | – | – | –
GGCAUGUGAGGAUAUGUACCUGAGUGCUUUGCGCUCAGGAAACAGAAGGCACAUGAGGAUCACCCAUGUGAUAA [jl-ex4-4.49 ViennaUCT mod] (Eterna round: R97, puzzle: Exclusion 4) | 67.7 | – | 710 | – | – | –
GGUCGACAUGAGGAUCACCCAUGUCAGGAUAUCGUCACUGGAGCUUCGGCUCCAGUGACGAGAAGGGAUAUGAU [E1/17-A1] (Eterna round: R97, puzzle: Exclusion 1) | 39.1 | – | 34.2 | – | – | –
CUGAAGGUGCAGGAUAUCCUGAAUAAGGGUUCAGGAGAAGGGCACACAUGAGGAUCACCCAUGUUAAUACUGCU [Eternabot (L2) Solution 54] (Eterna round: R97, puzzle: Exclusion 6) | 29.5 | – | 39.1 | – | – | –

Sequence | apparent KD of MS2 coat protein (input ligand: FMN 200 uM) [nM] | apparent KD of MS2 coat protein [1] [nM] | apparent KD of MS2 coat protein (input ligand: none) [nM] | apparent KD of MS2 coat protein [2] [nM] | apparent KD of MS2 coat protein [3] [nM] | apparent KD of MS2 coat protein [4] [nM]
CUGGUGUGAGGAUAUCAAAGACCUCGGGAUAGUAGCGAGGAUGAGAAGGCACAUGAGGAUCACCCAUGUAACAA [Edmaer] (puzzle: Exclusion 4) | – | – | – | – | 21.2 | –
GCAGGAUAAGUGAGGAUAUACCUAUGGAUACAUAGGUAGAAGGCACAUGAGGAUCACCCAUGUUACUCGCCUGC [Fiskers BMX 4 - 75] (puzzle: Brourd's mod of Exclusion 4) | – | – | – | 41.7 | 12.9 | 10.9
CCGCAGUGAGGAUAUUGUCAUAGACGGUGUGAAUCACGGGACAAGAAGGUACAUGAGGAUCACCCAUGUGGGUG [Eternabot (L1) Solution 1] (Eterna round: R97, puzzle: Exclusion 4) | 54.3 | – | 1560 | – | – | –
CCCAUGUUAGGAUAUAUGGAAGGGCGGACGGGCGCCCUAAGGUAGAAGGGACAUGAGGAUCACCCAUGUAAUAA [Diquar] (Eterna round: R97, puzzle: Exclusion 4) | 194 | – | 160 | – | – | –
CUGCCAACGAAGCUUGUCGACAUGAGGAUCACCCAUGUUUCGCAAAGUGUUACAAAAAAAUAUCUGUAUGAAAAUGU [JR_Sensorv2_yov_Sub1319] (Eterna round: R96, puzzle: Sensor v2, turn-off variant) | 11.8 | 10.2 | 15.9 | – | – | –
GGGCUGUCAGGAUAUUCGAGUUCGAGUGAAAGCUUGAGCUUGAAGAAGGGACAUGAGGAUCACCCAUGUGGCCC [-32.1, -31.1 kcal, A 26%, 1bis-0] (Eterna round: R97, puzzle: Exclusion 4) | 30.5 | – | 31.9 | – | – | –
AUAAAUCAUGUAGGAUAUGCGUAGCGAAGCUAUGCAGAAGGACAUGAGGAUCACCCAUGUCUUUCCGUCUGCGUACAGACGGAA [Mat - Exclusion NG 1 - Mod of JL - D42] (Eterna round: R96, puzzle: Exclusion NG 1) | 149 | 20.1 | 24.1 | – | – | –
CGUUCGCGAGGAUAUGCAUUCGAGUCCACUACGUGUCUGGGACUUGAGGAUCACCCAAGUAGAAGGCGCCUCAC [salish99_ex2_r4_648] (Eterna round: R97, puzzle: Exclusion 2) | 83.9 | – | 135 | – | – | –
UCCAGGCGAGGAUAUACAAAGAUUUUUUCGUUUUGUCUCGAACAUGAGGAUCACCCAUGUAGAAGGUGCUUCUG [JR_Ex2_Sub012] (Eterna round: R97, puzzle: Exclusion 2) | 149 | – | 115 | – | – | –
UUUUGAAAGUGAGGAUAUGACAUGAGGAUCACCCAUGUAAAGGGAGUUGACUAUAUAGAAAGAUAUCAGAAGGCACAAAUGUUU [JR_ExcNG2_Sub002] (Eterna round: R96, puzzle: Exclusion NG 2) | 839 | 237 | 321 | – | – | –
CGAUAAAAGUGAGGAUAUGAGGAGAGAGAGAGAUCAGAAGGCACACAUGAGGAUCACCCAUGUGAGUUCUCGAAAUUAAAUAUU [Prohibition 49 - Jieux - Exclusion NG 1] (Eterna round: R96, puzzle: Exclusion NG 1) | 15.2 | 11.4 | 18 | – | – | –
ACCUCACAUGAGGAUCACCCAUGUUAGGAUAUCUCGACACUCCGCGGGCGGUAGCGUCAGAGAAGGAACGUGCU [Iszaxeza] (puzzle: Exclusion 1) | – | – | – | – | 23.1 | –
AUGGUUCGGUCAGGAUAUCGUAGAUUGAAUAGUAUGAUUUACAUGAGGAUCACCCAUGUUACAUACGAGAAGGGACCGAAUCAU [JR_ExcNG2_Sub024] (Eterna round: R96, puzzle: Exclusion NG 2) | – | 10.4 | – | – | – | –
AUGAGGUUAGGAUAUACAUGAGGAUCACCCAUGUUGGAGAAGGAAAUGUAAGUAGCGAGUAGAAGGAACGGAGC [JR_Exclu3_Sub059] (puzzle: Exclusion 3) | – | – | – | – | 44.1 | –
CUCGGCUAAGGAUAUGCAUAGCGGGCCAAGUCUUCUCAAGUACAUGAGGAUCACCCAUGUAGAAGGUAGUUAAC [EX2 B.29] (Eterna round: R97, puzzle: Exclusion 2) | 22.4 | – | 24.5 | – | – | –
CAUCUGUGAGGAUAUGGUGAGUAGUGCCUGAGCGCUGCUCACCAGAAGGCACAUGAGGAUCACCCAUGUAUGAA [Mat - Exclusion 4 - Mod of JL - D1] (puzzle: Exclusion 4) | – | – | – | – | 46.9 | –
AAGAACGUAGGAUAUACAUGAGGAUCACCCAUGUGAGGAAGGAGUAGGAAGUGUGGAAGUAGAAGGACGGAGAG [JR_Exclu3_Sub076] (puzzle: Exclusion 3) | – | – | – | 31.5 | 35.4 | 33.8

Reference: the supplement of paper PMC9170038
